Laboratory results reported in the supplement of paper PMC9112550, “Optimization of the antimicrobial peptide Bac7 by deep mutational scanning” (BMC Biology, 2022).

tested on: Escherichia coli TOP10; test: shrunken log2 fold change of peptide-encoding DNA abundance (4.5 h post-induction vs induction); higher = less antimicrobial activity (less host growth inhibition); conditions: time post-induction: 4.5 h; library: site-saturation at positions 5, 18, 19, 20
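Note: peptides expressed intracellularly from a pBAD plasmid library in pooled LB shake-flask culture, induced with 0.3% L-arabinose, DNA abundance read by NGS, three biological replicates, DESeq2 with apeglm shrinkage.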

| Sequence | shrunken log2 fold change |
| --- | --- |
| RRIRGRPPRLPRPRPRPNDGPRP | 0.0995 |
| RRIRGRPPRLPRPRPRPNDPPRP | -0.0529 |
| RRIRGRPPRLPRPRPRPNENPRP | 0.931 |
| RRIRGRPPRLPRPRPRPNHHPRP | 0.491 |
| RRIRGRPPRLPRPRPRPNIGPRP | 0.138 |
| RRIRGRPPRLPRPRPRPNIRPRP | -0.135 |
| RRIRGRPPRLPRPRPRPNKDPRP | 0.179 |
| RRIRGRPPRLPRPRPRPNKEPRP | -0.00663 |
| RRIRGRPPRLPRPRPRPNKIPRP | 0.214 |
| RRIRGRPPRLPRPRPRPNLCPRP | -0.0201 |
| RRIRGRPPRLPRPRPRPNLLPRP | 0.485 |
| RRIRGRPPRLPRPRPRPNLNPRP | 0.0742 |
| RRIRGRPPRLPRPRPRPNLQPRP | 0.347 |
| RRIRGRPPRLPRPRPRPNMGPRP | 0.269 |
| RRIRGRPPRLPRPRPRPNMKPRP | 0.275 |
| RRIRGRPPRLPRPRPRPNMWPRP | 0.274 |
| RRIRGRPPRLPRPRPRPNNAPRP | 0.0616 |
| RRIRGRPPRLPRPRPRPNNLPRP | -0.349 |
| RRIRGRPPRLPRPRPRPNPEPRP | 0.511 |
| RRIRGRPPRLPRPRPRPNQRPRP | 0.27 |
| RRIRGRPPRLPRPRPRPNREPRP | -0.0791 |
| RRIRGRPPRLPRPRPRPNVCPRP | -0.237 |
| RRIRGRPPRLPRPRPRPNYGPRP | 0.07 |
| RRIRGRPPRLPRPRPRPNYVPRP | 0.216 |
| RRIRGRPPRLPRPRPRPPDVPRP | 0.0671 |

| Sequence | shrunken log2 fold change |
| --- | --- |
| RRIRGRPPRLPRPRPRPPEEPRP | 1.5 |
| RRIRGRPPRLPRPRPRPPENPRP | 1.11 |
| RRIRGRPPRLPRPRPRPPFEPRP | 0.691 |
| RRIRGRPPRLPRPRPRPPFLPRP | 0.444 |
| RRIRGRPPRLPRPRPRPPFPPRP | 1.17 |
| RRIRGRPPRLPRPRPRPPFSPRP | 0.444 |
| RRIRGRPPRLPRPRPRPPFVPRP | 0.803 |
| RRIRGRPPRLPRPRPRPPFYPRP | 0.397 |
| RRIRGRPPRLPRPRPRPPGDPRP | 1.18 |
| RRIRGRPPRLPRPRPRPPHEPRP | 0.773 |
| RRIRGRPPRLPRPRPRPPHRPRP | 0.81 |
| RRIRGRPPRLPRPRPRPPIMPRP | 0.375 |
| RRIRGRPPRLPRPRPRPPIRPRP | 0.849 |
| RRIRGRPPRLPRPRPRPPLAPRP | 1.35 |
| RRIRGRPPRLPRPRPRPPMMPRP | 0.626 |
| RRIRGRPPRLPRPRPRPPPIPRP | 1.16 |
| RRIRGRPPRLPRPRPRPPPYPRP | 0.611 |
| RRIRGRPPRLPRPRPRPPQCPRP | 0.713 |
| RRIRGRPPRLPRPRPRPPQGPRP | 0.812 |
| RRIRGRPPRLPRPRPRPPQHPRP | 0.789 |
| RRIRGRPPRLPRPRPRPPQIPRP | 0.859 |
| RRIRGRPPRLPRPRPRPPQVPRP | 0.791 |
| RRIRGRPPRLPRPRPRPPQYPRP | 0.38 |
| RRIRGRPPRLPRPRPRPPSGPRP | 0.766 |
| RRIRGRPPRLPRPRPRPPSRPRP | 1.11 |

| Sequence | shrunken log2 fold change |
| --- | --- |
| RRIRGRPPRLPRPRPRPPVHPRP | 0.644 |
| RRIRGRPPRLPRPRPRPPYNPRP | -0.163 |
| RRIRGRPPRLPRPRPRPPYPPRP | 0.291 |
| RRIRGRPPRLPRPRPRPQEHPRP | 0.146 |
| RRIRGRPPRLPRPRPRPQGIPRP | -0.128 |
| RRIRGRPPRLPRPRPRPQHGPRP | 0.137 |
| RRIRGRPPRLPRPRPRPQHRPRP | 0.212 |
| RRIRGRPPRLPRPRPRPQIAPRP | 1.94 |
| RRIRGRPPRLPRPRPRPQIGPRP | 0.345 |
| RRIRGRPPRLPRPRPRPQLAPRP | 1.19 |
| RRIRGRPPRLPRPRPRPQLPPRP | 0.183 |
| RRIRGRPPRLPRPRPRPQMIPRP | 1.83 |
| RRIRGRPPRLPRPRPRPQMMPRP | 0.112 |
| RRIRGRPPRLPRPRPRPQNPPRP | 0.0251 |
| RRIRGRPPRLPRPRPRPQNSPRP | -0.506 |
| RRIRGRPPRLPRPRPRPQPHPRP | 0.582 |
| RRIRGRPPRLPRPRPRPQPMPRP | 0.412 |
| RRIRGRPPRLPRPRPRPQQTPRP | 1.6 |
| RRIRGRPPRLPRPRPRPQQVPRP | 0.564 |
| RRIRGRPPRLPRPRPRPQRYPRP | -0.00818 |
| RRIRGRPPRLPRPRPRPQSAPRP | 0.629 |
| RRIRGRPPRLPRPRPRPQSGPRP | 0.0868 |
| RRIRGRPPRLPRPRPRPQSHPRP | 0.214 |
| RRIRGRPPRLPRPRPRPQSNPRP | 0.518 |
| RRIRGRPPRLPRPRPRPQTFPRP | 0.762 |
